This is an account of results in IntAct's records for PubMed 31515488.

Sequences and labels used below:
B1: Cell growth regulator with RING finger domain protein 1 (Homo sapiens), Q99675 (parent)
chain: MAAVFLVTLYEYSPLFYIAVVFTCFIVTTGLVLGWFGWDVPVILRNSEETQFSTRVFKKQMRQVKNPFGLEITNPSSASITTGITLTTDCLEDSLLTCYWGCSVQKLYEALQKHVYCFRISTPQALEDALYSEYLYQEQYFIKKDSKEEIYCQLPRDTKIEDFGTVPRSRYPLVALLTLADEDDREIYDIISMVSVIHIPDRTYKLSCRILYQYLLLAQGQFHDLKQLFMSANNNFTPSNNSSSEEKNTDRSLLEKVGLSESEVEPSEENSKDCVVCQNGTVNWVLLPCRHTCLCDGCVKYFQQCPMCRQFVQESFALCSQKEQDKDKPKTL
partner: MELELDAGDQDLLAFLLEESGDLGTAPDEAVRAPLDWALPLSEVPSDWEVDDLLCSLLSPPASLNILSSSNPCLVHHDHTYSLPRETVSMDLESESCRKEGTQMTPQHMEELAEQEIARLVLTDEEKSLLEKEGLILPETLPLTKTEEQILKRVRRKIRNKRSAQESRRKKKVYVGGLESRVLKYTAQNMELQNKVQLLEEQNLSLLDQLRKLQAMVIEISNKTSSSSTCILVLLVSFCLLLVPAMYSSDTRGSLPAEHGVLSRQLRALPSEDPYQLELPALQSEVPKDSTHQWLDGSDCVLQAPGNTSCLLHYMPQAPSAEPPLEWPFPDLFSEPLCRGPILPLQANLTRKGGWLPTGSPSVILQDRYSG
B2: Tuftelin-interacting protein 11 (Homo sapiens), Q9UBB9 (parent)
chain: MSLSHLYRDGEGRIDDDDDERENFEITDWDLQNEFNPNRQRHWQTKEEATYGVWAERDSDDERPSFGGKRARDYSAPVNFISAGLKKGAAEEAELEDSDDEEKPVKQDDFPKDFGPRKLKTGGNFKPSQKGFAGGTKSFMDFGSWERHTKGIGQKLLQKMGYVPGRGLGKNAQGIINPIEAKQRKGKGAVGAYGSERTTQSMQDFPVVDSEEEAEEEFQKELSQWRKDPSGSKKKPKYSYKTVEELKAKGRISKKLTAPQKELSQVKVIDMTGREQKVYYSYSQISHKHNVPDDGLPLQSQQLPQSGKEAKAPGFALPELEHNLQLLIDLTEQEIIQNDRQLQYERDMVVNLFHELEKMTEVLDHEERVISNLSKVLEMVEECERRMQPDCSNPLTLDECARIFETLQDKYYEEYRMSDRVDLAVAIVYPLMKEYFKEWDPLKDCTYGTEIISKWKSLLENDQLLSHGGQDLSADAFHRLIWEVWMPFVRNIVTQWQPRNCDPMVDFLDSWVHIIPVWILDNILDQLIFPKLQKEVENWNPLTDTVPIHSWIHPWLPLMQARLEPLYSPIRSKLSSALQKWHPSDSSAKLILQPWKDVFTPGSWEAFMVKNIVPKLGMCLGELVINPHQQHMDAFYWVIDWEGMISVSSLVGLLEKHFFPKWLQVLCSWLSNSPNYEEITKWYLGWKSMFSDQVLAHPSVKDKFNEALDIMNRAVSSNVGAYMQPGARENIAYLTHTERRKDFQYEAMQERREAENMAQRGIGVAASSVPMNFKDLIETKAEEHNIVFMPVIGKRHEGKQLYTFGRIVIYIDRGVVFVQGEKTWVPTSLQSLIDMAK
partner: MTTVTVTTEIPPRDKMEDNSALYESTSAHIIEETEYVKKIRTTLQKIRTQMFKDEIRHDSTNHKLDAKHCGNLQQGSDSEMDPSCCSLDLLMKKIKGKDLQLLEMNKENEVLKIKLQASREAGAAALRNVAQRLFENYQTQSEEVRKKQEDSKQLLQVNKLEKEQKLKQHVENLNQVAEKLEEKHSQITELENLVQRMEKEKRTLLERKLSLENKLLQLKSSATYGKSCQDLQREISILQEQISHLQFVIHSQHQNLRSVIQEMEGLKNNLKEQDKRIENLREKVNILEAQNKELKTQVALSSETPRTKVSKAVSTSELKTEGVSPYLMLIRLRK
B3: Beta-taxilin (Homo sapiens), Q8N3L3 (parent)
chain: MEANHSEQLSAERQSTPPGDSSSLPSHNGLEKEDGQDSPTPVQPPEKEASVHPDISEELNRQLEDIINTYGSAASTAGKEGSARASEQPENAESPDNEDGDCEETTEEAGREPVASGEPPTVKEPVSNKEQKLEKKILKGLGKEANLLMQNLNKLQTPEEKFDFLFKKYAELLDEHRTEQKKLKLLQKKQVQIQKEKDQLQGEHSRAILARSKLESLCRELQRHNKTLKEEALQRAREEEEKRKEITSHFQSTLTDIQGQIEQQSERNMKLCQENTELAEKLKSIIDQYELREEHLDKIFKHRELQQKLVDAKLEQAQEMMKEAEERHKREKEYLLNQAAEWKLQAKVLKEQETVLQAQLTLYSGRFEEFQSTLTKSNEVFATFKQEMDKTTKKMKKLEKDTATWKARFENCNKALLDMIEEKALRAKEYECFVMKIGRLENLCRALQEERNELHKKIRDAEISEKDDQSQHNSDEEPESNVSVDQEIDAEEVNSVQTAVKNLATAFMIIHHPESTPHQSKETQPEIGSSQESADAALKEPEQPPLIPSRDSESPLPPLTPQAEAEGGSDAEPPSKASNSPAGLGAETQCEGLPVGAQADQASWKPEAEASGQAPQAPTEASLQKMEADVPAPACAAEEHVAAMVPACEPSRQPPRAAAEELPVGASAGPQPRNVADTNLEGVD
partner: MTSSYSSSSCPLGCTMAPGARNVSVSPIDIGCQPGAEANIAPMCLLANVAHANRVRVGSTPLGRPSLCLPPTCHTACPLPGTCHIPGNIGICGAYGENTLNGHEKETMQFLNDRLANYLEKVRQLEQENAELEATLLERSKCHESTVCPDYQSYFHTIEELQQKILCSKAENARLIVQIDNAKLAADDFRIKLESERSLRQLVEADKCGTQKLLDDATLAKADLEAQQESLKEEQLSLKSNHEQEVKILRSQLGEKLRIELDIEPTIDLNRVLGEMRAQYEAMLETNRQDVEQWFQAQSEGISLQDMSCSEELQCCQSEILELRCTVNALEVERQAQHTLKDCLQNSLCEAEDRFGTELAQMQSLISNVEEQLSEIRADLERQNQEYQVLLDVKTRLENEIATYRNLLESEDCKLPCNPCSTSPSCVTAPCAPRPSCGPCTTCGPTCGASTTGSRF
B4: Alpha-taxilin (Homo sapiens), P40222 (parent)
chain: MKNQDKKNGAAKQSNPKSSPGQPEAGPEGAQERPSQAAPAVEAEGPGSSQAPRKPEGAQARTAQSGALRDVSEELSRQLEDILSTYCVDNNQGGPGEDGAQGEPAEPEDAEKSRTYVARNGEPEPTPVVNGEKEPSKGDPNTEEIRQSDEVGDRDHRRPQEKKKAKGLGKEITLLMQTLNTLSTPEEKLAALCKKYAELLEEHRNSQKQMKLLQKKQSQLVQEKDHLRGEHSKAVLARSKLESLCRELQRHNRSLKEEGVQRAREEEEKRKEVTSHFQVTLNDIQLQMEQHNERNSKLRQENMELAERLKKLIEQYELREEHIDKVFKHKDLQQQLVDAKLQQAQEMLKEAEERHQREKDFLLKEAVESQRMCELMKQQETHLKQQLALYTEKFEEFQNTLSKSSEVFTTFKQEMEKMTKKIKKLEKETTMYRSRWESSNKALLEMAEEKTVRDKELEGLQVKIQRLEKLCRALQTERNDLNKRVQDLSAGGQGSLTDSGPERRPEGPGAQAPSSPRVTEAPCYPGAPSTEASGQTGPQEPTSARA
partner: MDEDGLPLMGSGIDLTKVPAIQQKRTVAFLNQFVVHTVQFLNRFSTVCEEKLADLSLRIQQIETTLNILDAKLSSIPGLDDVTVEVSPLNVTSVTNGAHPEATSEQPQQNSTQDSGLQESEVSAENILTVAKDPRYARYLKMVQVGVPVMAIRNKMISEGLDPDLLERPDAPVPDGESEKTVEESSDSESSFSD
B5: Fibronectin type III and SPRY domain-containing protein 2 (Homo sapiens), A1L4K1 (parent)
chain: MEEESGEELGLDRSTPKDFHFYHMDLYDSEDRLHLFPEENTRMRKVVQAEMANESRGAGDGKAQRDLQEEVDELVHLYGLEDDHELGDEFVDENIPRTGVSEYPPYMMKRRDPAREQRDWRLSGEAAEAEDLGFGGWGSAGQCQDLREAYRYTHGRASEEYECYVIPEEEDEEEAADVFCVTCKTPIRAFQKVFDEHKEHEVIPLNEALESAKDEIHKNMYKLEKQIIEMENFANHLEEVFITVEENFGKQEQNFESHYNEILETLAQKYEEKIQALGEKKKEKLEALYGQLVSCGENLDTCKELMETIEEMCHEEKVDFIKDAVAMADRLGKFLKTKTDVEISAQPEFEDQTLDFSDVEQLMGSINTIPAPSAPVINPQVPNSATGSSVRVCWSLYSDDTVESYQLSYRPVQDSSPGTDQAEFTVTVKETYCSVTNLVPNTQYEFWVTAHNRAGPSPSSERAVYMTAPSPPIIKTKEIRSCEEAVLICWESGNLNPVDSYTVELTQAESPEASGVTESVVGIPTCESVVQLQPGRSYIIYVRALNMGGPSVRSEPATVHTIGSYFRLNKDTCHPWLTISEDGLTAVRSERRTPARELSPSDTHFTRCVAVMGNLIPVRGHHYWEVEVDEHLDYRVGVAFADVRKQEDLGANCLSWCMRHTFASSRHKYEFLHNRTTPDIRITVPPKKIGILLDYEHSKLSFFNVDLSQHLYTFSCQLHEFVHPCFSLEKPGCLKVHNGISMPKHVTFY
B6: Protein LDOC1 (Homo sapiens), O95751 (parent)
chain: MVDELVLLLHALLMRHRALSIENSQLMEQLRLLVCERASLLRQVRPPSCPVPFPETFNGESSRLPEFIVQTASYMLVNENRFCNDAMKVAFLISLLTGEAEEWVVPYIEMDSPILGDYRAFLDEMKQCFGWDDDEDDDDEEEEDDY
partner: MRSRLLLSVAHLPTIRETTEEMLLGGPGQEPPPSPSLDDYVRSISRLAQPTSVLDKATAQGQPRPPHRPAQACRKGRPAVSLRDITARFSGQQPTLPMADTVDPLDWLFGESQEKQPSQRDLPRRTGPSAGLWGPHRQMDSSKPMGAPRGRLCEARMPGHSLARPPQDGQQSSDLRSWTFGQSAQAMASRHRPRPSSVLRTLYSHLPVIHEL
B7: Coiled-coil domain-containing protein 33 (Homo sapiens), Q8N5R6-5 (parent)
chain: MGEPGPPSPPAPKAAPGLIDSFSEMNNYRRAMQKMAEDILSLRRQASILEGENRILRSRLAQQEEEEGQGKASEAQNTVSMKQKLLLSELDMKKLRDRVQHLQNELIRKNDREKELLLLYQAQQPQAALLKQYQGKLQKMKALEETVRHQEKVIEKMERVLEDRLQDRSKPPPLNRQQGKPYTGFPMLSASGLPLGSMGENLPVELYSVLLAENAKLRTELDKNRHQQAPIILQQQALPVDPGELGAGGDLTERLQETHGPGHSECTETLPAQDLLSGTSDKFNLLAKLEHAQSRILSLESQLEDSARRWGREKQDLATRLQEQEKGFRHPSNSIIIEQPVSDPPGVAPRGSGGGAGSHRTPKVTGP
partner: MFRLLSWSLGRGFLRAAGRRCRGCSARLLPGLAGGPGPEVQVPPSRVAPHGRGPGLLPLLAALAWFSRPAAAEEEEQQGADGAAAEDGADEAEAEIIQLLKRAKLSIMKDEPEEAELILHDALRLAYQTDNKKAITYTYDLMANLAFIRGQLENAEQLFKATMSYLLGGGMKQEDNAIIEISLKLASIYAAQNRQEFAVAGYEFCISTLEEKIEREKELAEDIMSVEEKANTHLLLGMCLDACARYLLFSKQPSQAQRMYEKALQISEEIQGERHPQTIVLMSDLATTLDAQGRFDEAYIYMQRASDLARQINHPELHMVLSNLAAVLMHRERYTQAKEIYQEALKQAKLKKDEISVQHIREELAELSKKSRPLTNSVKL

The variants in one experiment derive from B1. The conditions noted are these: with creb3_human CREB3, O43889.
Consider R185W, for which the “effect of a mutation on the interaction” value was “disrupting interaction strength”.

The next experiment covers variants of B2. The conditions noted are these: with ccd68_human CCDC68, Q9H2F9.
For S688L, the “effect of a mutation on the interaction” value is “with no effect”.
Consider R8Q, for which the “effect of a mutation on the interaction” value was “with no effect”.

In a further experiment the parent is B3. The note with it: with krt38_human KRT38, O76015.
For the variant I527T, the “effect of a mutation on the interaction” value is “with no effect”.

Variants of B4 are the subject of another experiment. The conditions noted are these: with wasc3_human WASHC3, Q9Y3C0.
With S514R, the “effect of a mutation on the interaction” value is on record as “with no effect”.
For the variant P541S, the “effect of a mutation on the interaction” value is given as “with no effect”.

Variants of B5 are the subject of the next experiment. The note with it: with cor1a_human CORO1A.
K333T: the “effect of a mutation on the interaction” value is “with no effect”.
As to E720K, the “effect of a mutation on the interaction” value is reported as “with no effect”.

The variants in the next experiment derive from B6. The conditions noted are these: with depp1_human DEPP1, Q9NTK1.
Consider L12H, for which the “effect of a mutation on the interaction” value is “disrupting interaction strength”.

A further experiment covers variants of B7. The note with it: with ttc19_human TTC19, Q6DKK2.
For the variant G196R, the “effect of a mutation on the interaction” value is given as “with no effect”.
With M25V, the “effect of a mutation on the interaction” value is on record as “with no effect”.
